Test results from US20170119790A1, “Agents, Uses and Methods” (CYTOGUIDE A/S, priority 2009, published 2017).

Tests used:
[1] = test system: LPS mediated TNFα stimulation; assay: Rat in vivo LPS model; parameters: species or system Lewis rats; settings: i.v., challenged with LPS, FIG. 41
[2] = test system: LPS mediated TNFα stimulation of rat macrophages / spleen cells; assay: Rat in vitro LPS model; assay type: cell-based; settings: FIG. 41
Experimental: Rat or mouse peritoneal or spleen cell suspensions were prepared from female Lewis rats (Harlan) or BalB/cA mice (Taconic). Human mononuclear cells were isolated from buffycoats (Skejby University Hospital) as described above. The purified cells were suspended in RPMI medium supplemented with 10% FCS and 2 mM L-glutamine and cultured (2×10^5 per well) overnight in 96-well flat bottomed plates (125 μl per well) at 37° C. and 5% CO2. Glucocorticoid conjugates (Example 8), free glucocorticoids or PBS were serial diluted in supplemented RPMI medium and added (100 μl) to the overnight cell cultures at final concentrations ranging from 1-10^−7 μg glucocorticoid/ml. After incubation for a specific time ranging from 30 min-24 hours, 150 μl supernatant was carefully aspirated and 150 μl supplemented RPMI medium added to the wells before further incubation overnight. Each incubation condition was tested in duplicates or triplicates. After 16-20 hours, the cells were challenged with lipopolysaccharide (LPS) (250 ng/ml) for 4 hours before supernatant was aspirated from each well and frozen at -20° C.

CD163 [3] = biological target: T1, CD163 (Homo sapiens, UniProt Q86VB7); assay: scFv ELISA; assay type: binding; settings: for ELISA signal: PBS, read at 450 nm
Experimental: A nunc Maxisorp ELISA plate (NUNC, Roskilde, Denmark) was coated with 50 μl/well of 2 μg/ml of CD163 (purified as described in (2)) over night at 4° C. The coated plate was washed 3 times in PBS and blocked for 1 hour with 3% BSA in PBS. Fractions from scFv purification were tested by adding 100 μl/well of a 1:10 dilution of each sample in 1% BSA, PBS. The refolded protein sample was added directly to the wells (100 μl/well) and two-fold dilution series was made with dilution in 1% BSA in PBS. After 1 hour incubation at 4° C. the plate was washed 3 times in PBS again. Secondary detection was made with a 1 hour incubation of a HRP conjugated anti-His antibody (Sigma-Aldrich, Brøndby, Denmark) (1:4000 diluted in 1% BSA, PBS). After washing 3 times in PBS the ELISA was developed with […] TMB substrate (Invitrogen, Taastrup, Denmark). The reaction was stopped with 40 μl/well of 1 M H2SO4 and the plate was read in an ELISA reader at 450 nm.

[4] = biological target: T2, CD163 transfected Flp-In CHO cells (Homo sapiens, UniProt Q86VB7); assay: Cellular binding and uptake (endocytosis) of 125I-labeled anti-CD163; assay type: cell-based
T2 construct: Stably transfected Chinese hamster ovary (CHO) cells expressing the full-length human CD163; expressed in transfected cells
Experimental: Monocytes were isolated from PBMC by negative selection using magnetic beads from Dynal (Dynabeads® MyPure™ Monocyte Kit 2; Invitrogen A/S, Taastrup, Denmark) according to instructions provided by the manufacturer. Monocyte preparations were more than 95% (CD14^+) pure determined by flow cytometry. The isolated cells were washed twice with phosphate-buffered saline. Monocyte-derived macrophages (MDMs) were prepared by cell culture of monocytes (approximately 1×10^7 cells) for 4 days in 5% CO2 and 37° C. in RPMI 1640 media (RPMI 1640+25 mM HEPES+I-glutamine) (Invitrogen Corporation, Carlsbad, Calif., USA) with 20% FCS containing 100 ng/ml of M-CSF. MDMs were then detached from the flask by incubation with cell dissociation buffer (Invitrogen A/S, Taastrup, Denmark) for 30 minutes at 4 °C, then flushed, and scraped. The cells were then cultured for 24 hours in RPMI 1640 media (RPMI 1640+25 mM HEPES+I-glutamine) (Invitrogen Corporation, Carlsbad, Calif., USA) supplemented with 20% FCS containing 100 ng/ml of M-CSF at 37° C. in 95% air and 5% CO2 in Lab-Tek™ Chamber Slides (Thermo Fisher Scientific, Roskilde, Denmark). 200 nM dexamethasone (Merck KGaA, Darmstadt, Germany) was added during culture to increase CD163 expression. Stably transfected Chinese hamster ovary (CHO) cells expressing the full-length human CD163, as described above, were cultured in serum-free CHO medium (HyQ-CCM, HyClone, Logan, Utah) containing 300 μg/ml Hygromycin B, as previously described (2).
Endocytosis of ^125I-labeled anti-CD163 was investigated in CD163 transfected Flp-In Chinese hamster ovary (CHO) cells and mock-transfected Flp-In as described (Madsen, M., Moller, H. J., Nielsen, M. J., Jacobsen, C., Graversen, J. H., van den Berg, T. and Moestrup, S. K. (2004) Molecular characterization of the haptoglobin.hemoglobin receptor CD163. Ligand binding properties of the scavenger receptor cysteine-rich domain region. J. Biol. Chem., 279, 51561-51567.)

CD163 [5] = biological target: T1, CD163; assay: Competition of binding to Mac2-158 epitope (SPR on Mac2-158 saturated CD163 chip); settings: 2 mM free calcium buffer, mAb 5 μg/ml
Experimental: To evaluate if there is competition in the binding of a range of mAbs to CD163 we first saturated the CD163-chip with Mac2-158 by injecting 50 μL of 50 μg/ml Mac2-158 and subsequently injecting relevant mAbs in 5 μg/ml. The binding buffer was CaHBS 10 mM Hepes, 150 mM NaCl, 3.0 mM CaCl2, 1.0 mM EGTA, and 0.005% Tween 20, pH 7.4.

CD163 [6] = biological target: T1, CD163; assay: Surface plasmon resonance (Biacore) analysis of mAb binding to immobilized CD163; settings: in both 2 mM free Ca2+ and 10 mM EDTA
Experimental: (§1) SPR analysis of the binding of mAbs to CD163 was carried out on a Biacore 2000 instrument (Biacore, Uppsala, Sweden). The Biacore sensor chips (type CM5) were activated with a 1:1 mixture of 0.2 M N-ethyl-N′-(3-dimethylaminopropyl) carbodiimide and 0.05 M N-hydroxysuccimide in water. Purified recombinant CD163 were immobilized in 10 mM sodium acetate, pH 4.0, and the remaining binding sites were blocked with 1 M ethanolamine, pH 8.5. The SPR signal generated from immobilized recombinant CD163 proteins corresponded to 40-70 fmol of protein/mm^2. Sensorgrams were generated using mAb concentrations ranging from 5-100 nM. The flow cells were regenerated with 1.6 M glycine-HCl, pH 3. The running buffer used for the experiment was either CaHBS 10 mM Hepes, 150 mM NaCl, 3.0 mM CaCl2, 1.0 mM EGTA, and 0.005% Tween 20, […], and 0.005% Tween 20, pH 7.4, mAb samples were dissolved in the same buffer as the running buffer used. All binding data were analyzed using the Biamolecular Interaction Analysis evaluation program version 3.1.
as §1, with “7.4, KN2/NRY and Mac-158” for “7.4, mAb”, “buffer used at a concentration of 5 μg/ml.” for “buffer used.”

[7] = biological target: T3, CHO cells expressing CD163 (Homo sapiens, UniProt Q86VB7); assay: CD163 antibody binding and uptake in CHO cells expressing CD163 (confocal microscopy); assay type: cell-based; settings: 0 or 30 minutes, FIG. 7
T3 construct: Stably transfected Chinese hamster ovary (CHO) cells expressing the full-length human CD163; expressed in transfected cells
Experimental: Monocytes were isolated from PBMC by negative selection using magnetic beads from Dynal (Dynabeads® MyPure™ Monocyte Kit 2; Invitrogen A/S, Taastrup, Denmark) according to instructions provided by the manufacturer. Monocyte preparations were more than 95% (CD14^+) pure determined by flow cytometry. The isolated cells were washed twice with phosphate-buffered saline. Monocyte-derived macrophages (MDMs) were prepared by cell culture of monocytes (approximately 1×10^7 cells) for 4 days in 5% CO2 and 37° C. in RPMI 1640 media (RPMI 1640+25 mM HEPES+I-glutamine) (Invitrogen Corporation, Carlsbad, Calif., USA) with 20% FCS containing 100 ng/ml of M-CSF. MDMs were then detached from the flask by incubation with cell dissociation buffer (Invitrogen A/S, Taastrup, Denmark) for 30 minutes at 4 °C, then flushed, and scraped. […]
MDMs or CHO cells were washed with 4° C. cold D-PBS, pH 7.4, containing 1% BSA in Lab-Tek™ Chamber Slides (Thermo Fisher Scientific, Roskilde, Denmark). […] Fluorescence was visualized using a Zeiss Axiovert 200M microscope (Carl Zeiss GmbH, Jena, Germany) with an ×100 oil-immersion objective. […] Alternatively, immunostained cells were analyzed by confocal immunofluorescence microscopy using a Zeiss LSM-510 confocal microscope (Carl Zeiss GmbH, Jena, Germany). […]

T1 sequence (Q86VB7 42-1156): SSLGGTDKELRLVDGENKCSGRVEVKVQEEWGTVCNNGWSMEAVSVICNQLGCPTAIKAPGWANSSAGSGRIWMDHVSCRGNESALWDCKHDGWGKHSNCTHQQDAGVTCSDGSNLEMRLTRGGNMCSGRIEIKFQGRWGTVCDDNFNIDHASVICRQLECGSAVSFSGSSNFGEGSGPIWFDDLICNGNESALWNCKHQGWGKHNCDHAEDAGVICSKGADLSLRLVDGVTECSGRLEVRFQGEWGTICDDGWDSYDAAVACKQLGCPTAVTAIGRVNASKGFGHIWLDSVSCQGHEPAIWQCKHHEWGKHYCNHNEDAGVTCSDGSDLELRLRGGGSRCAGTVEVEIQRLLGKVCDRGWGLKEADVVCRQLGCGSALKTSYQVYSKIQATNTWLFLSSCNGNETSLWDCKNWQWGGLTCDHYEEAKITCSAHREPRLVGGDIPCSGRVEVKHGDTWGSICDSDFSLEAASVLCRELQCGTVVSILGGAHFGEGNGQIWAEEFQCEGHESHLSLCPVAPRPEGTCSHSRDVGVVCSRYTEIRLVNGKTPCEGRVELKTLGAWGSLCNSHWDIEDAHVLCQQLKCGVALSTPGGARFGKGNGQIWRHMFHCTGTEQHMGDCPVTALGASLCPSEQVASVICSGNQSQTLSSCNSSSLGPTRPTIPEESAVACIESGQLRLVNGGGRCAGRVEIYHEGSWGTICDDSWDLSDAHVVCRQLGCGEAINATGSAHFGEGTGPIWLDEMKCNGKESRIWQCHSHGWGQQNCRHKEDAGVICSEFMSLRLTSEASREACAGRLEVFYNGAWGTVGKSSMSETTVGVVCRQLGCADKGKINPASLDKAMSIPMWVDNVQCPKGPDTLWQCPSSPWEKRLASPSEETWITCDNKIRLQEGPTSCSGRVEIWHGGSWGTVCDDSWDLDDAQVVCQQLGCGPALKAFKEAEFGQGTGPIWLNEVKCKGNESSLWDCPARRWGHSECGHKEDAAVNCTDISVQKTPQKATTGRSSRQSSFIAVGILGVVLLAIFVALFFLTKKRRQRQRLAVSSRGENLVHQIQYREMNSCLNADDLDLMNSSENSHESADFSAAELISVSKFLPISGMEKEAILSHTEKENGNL
T2 sequence (Q86VB7 42-1156): as above
T3 sequence (Q86VB7 42-1156): as above

Molecule: C[C@]12C=CC(=O)C=C1CC[C@@H]1[C@@H]2[C@@H](O)C[C@@]2(C)[C@H]1CC[C@]2(O)C(=O)CO [prednisolone]
- TNFα level lower compared to vehicle [1]: 5 times

Molecule: CC1(C)O[C@@H]2C[C@H]3[C@@H]4C[C@H](F)C5=CC(=O)C=C[C@]5(C)[C@@]4(F)[C@@H](O)C[C@]3(C)[C@]2(C(=O)CO)O1 [fluocinolone-acetoniode, Fluocinolone acetonide]
- TNFα level lower compared to vehicle [1]: 5 times
- suppressive in vitro effect compared to prednisolone [2]: significantly higher

B1: refolded scFv: scFv (VH-15 residue linker-VL), SEQ ID NO: 56, expressed in E. coli and refolded (protein)
scFv: MDQVQLQESGPGLVKPSETLSLTCTVSGYSITSDYAWNWIRQFPGNKLEWMGYITYSGSTYYNPSLKSRVTISVDTSKNQFSLKLSSVTAADTATYYCVSGTYYFDYWGQGTTLTVSSGGGGSGGGGSGGGGSDIVMTQSPSSLSASVGDRVTITCRASQSVSSDVAWFQQKPGKSPKPLIYYASNRYSGVPSRFSGSGSGTDFTLTISSLQAEDFAVYFCGQDYTSPRTFGGGTKLEIKREQKLISEEDL
modifications: scFv sequence
- dilution down to which binding signals to CD163 were detected (CD163 [3]; 2 fold dilution series): 128 fold
- ELISA signal (CD163 [3]; 64 fold dilution in 1% BSA): 0.29
- ELISA signal (CD163 [3]; 128 fold dilution in 1% BSA): 0.15

B2: Mac2-48: anti-human CD163 murine mAb, IQ Products; VH SEQ ID NO: 3, VL SEQ ID NO: 4 (antibody, V domains shown)
VH: DVQLQESGPGLVKPSQSLSLTCTVTGYSITSDYAWNWIRQFPGNKLEWMGFISYSGITSYNPSLKSRISITRDTSKNQFFLQLNSVTTEDSATYYCVSGTYYFDYWGQGTTLTVSS
VL: SIVMTQTPKFLLVSAGDRVTITCKASQSVSHDVSWFQQKPGQSPKLLIYYTSNRYTGVPDRFTGSGYGTDFTFTISTVQAEDLAIYFCQQDYSSPRTFGGGTKLEIKRA
modifications: Mac2-48 VH; Mac2-48 VL
- time course of cell-associated radioactivity (bound or internalized) ([4]; 125I-labelled mAb, increasing time points): did not reach a plateau
- cellular uptake and binding to CD163-expressing cells ([4]; compared with the other tested antibodies, FIG. 5): considerably higher
- binding to CD163-Fc saturated with Mac2-158 (CD163 [5]): not able to bind
- affinities for CD163 (CD163 [6]): nanomolar or sub-nanomolar range
- binding and uptake [7]: best binding and uptake
